From US20260049134A1 (UNIVERSITY OF FLORIDA RESEARCH FOUNDATION, published 2026)

What was measured:
Assay in all cases: flow cytometry, AF647-IgG1 on H929 cells
[1] = target: T1, CADM1, endogenous in H929 multiple myeloma cells (human, UniProt Q9BY67 45-442)
T1 construct: Native protein on H929 cells (flow cytometry, siRNA knockdown) and in H929 lysates (IP/MS); also called IGSF4A
T1 sequence: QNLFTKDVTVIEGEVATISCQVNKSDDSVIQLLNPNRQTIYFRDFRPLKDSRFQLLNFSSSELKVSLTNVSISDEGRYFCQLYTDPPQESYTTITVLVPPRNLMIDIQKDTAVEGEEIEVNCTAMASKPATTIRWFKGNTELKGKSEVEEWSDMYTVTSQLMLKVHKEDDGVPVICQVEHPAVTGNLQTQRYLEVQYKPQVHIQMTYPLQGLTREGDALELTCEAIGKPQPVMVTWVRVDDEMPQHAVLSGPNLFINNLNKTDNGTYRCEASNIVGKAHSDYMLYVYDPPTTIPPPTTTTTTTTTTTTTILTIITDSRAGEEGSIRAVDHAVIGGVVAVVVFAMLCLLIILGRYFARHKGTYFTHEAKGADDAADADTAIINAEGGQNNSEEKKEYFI
Method: (§1) Staining protocol. Cells were harvested (5×10⁴ cells per sample), washed once with phosphate-buffered saline (PBS) at RT, and a second time with ice-cold FACS buffer (PBS, 0.5% BSA, 2 mM EDTA, 0.1% NaN₃). Cells were stained in 50 μL of primary antibody for 30 min on ice, washed twice with 100 μL FACS buffer, stained with 50 μL of diluted secondary antibody, washed two more times in FACS, and then resuspended in 50 μL FACS buffer. Samples were acquired on an Accuri C6 Plus or a BD FACSCanto II flow cytometer (both from BD Biosciences). Data were analyzed using FlowJo version 10 software. Primary antibodies: Fab (10 μg/mL), IgG1 (0.1 to 50 μg/mL), or 25 μL polyclonal Fabs from periplasmic extracts. Polyclonal Fabs were produced by diluting bacterial stocks by a factor of 100 in autoinduction media and incubating overnight to induce expression as previously described. […] Viability stains: DAPI (Cell Signaling Technology) or SYTOX AADvanced Dead Cell Stain (Thermo Fisher Scientific). Labeling: The panel of chimeric rabbit/human IgG1s was labeled using the Alexa Fluor 647 Labeling Kit (Thermo Fisher Scientific, #A20173) to facilitate single-step staining. Competition: Unlabeled IgG1s were added at saturating concentrations of 60 μg/mL to block the target receptors, incubating on ice for 30 min, followed by the addition of an equal volume of the Alexa Fluor 647 labeled antibody at 2 μg/mL, and the mixture was incubated on ice for another 30 min.

[2] = target: T2, ICAM1, endogenous in H929 multiple myeloma cells (human, UniProt P05362 28-532)
T2 construct: Native protein on H929 cells (flow cytometry, siRNA knockdown) and in H929 lysates (IP/MS); also called CD54
T2 sequence (P05362 28-532 limits assumed): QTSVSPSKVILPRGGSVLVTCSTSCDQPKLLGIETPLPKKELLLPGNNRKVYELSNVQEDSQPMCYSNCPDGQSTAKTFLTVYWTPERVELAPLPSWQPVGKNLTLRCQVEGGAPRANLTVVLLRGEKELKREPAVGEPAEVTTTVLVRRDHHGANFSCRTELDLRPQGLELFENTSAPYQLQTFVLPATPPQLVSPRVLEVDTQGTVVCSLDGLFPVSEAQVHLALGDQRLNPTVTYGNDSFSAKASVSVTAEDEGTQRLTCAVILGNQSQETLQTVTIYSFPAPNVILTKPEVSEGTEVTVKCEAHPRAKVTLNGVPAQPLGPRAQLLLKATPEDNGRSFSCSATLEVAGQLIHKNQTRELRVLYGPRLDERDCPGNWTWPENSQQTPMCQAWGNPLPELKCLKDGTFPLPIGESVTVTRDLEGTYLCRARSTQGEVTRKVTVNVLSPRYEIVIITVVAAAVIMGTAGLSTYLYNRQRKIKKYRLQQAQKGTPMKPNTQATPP
Method: as §1

[3] = target: T3, PTPRG, endogenous in H929 multiple myeloma cells (human, UniProt P23470 20-1445)
T3 construct: Native protein on H929 cells (flow cytometry, siRNA knockdown) and in H929 lysates (IP/MS); also called phosphatase receptor type γ
T3 sequence (P23470 20-1445 limits assumed): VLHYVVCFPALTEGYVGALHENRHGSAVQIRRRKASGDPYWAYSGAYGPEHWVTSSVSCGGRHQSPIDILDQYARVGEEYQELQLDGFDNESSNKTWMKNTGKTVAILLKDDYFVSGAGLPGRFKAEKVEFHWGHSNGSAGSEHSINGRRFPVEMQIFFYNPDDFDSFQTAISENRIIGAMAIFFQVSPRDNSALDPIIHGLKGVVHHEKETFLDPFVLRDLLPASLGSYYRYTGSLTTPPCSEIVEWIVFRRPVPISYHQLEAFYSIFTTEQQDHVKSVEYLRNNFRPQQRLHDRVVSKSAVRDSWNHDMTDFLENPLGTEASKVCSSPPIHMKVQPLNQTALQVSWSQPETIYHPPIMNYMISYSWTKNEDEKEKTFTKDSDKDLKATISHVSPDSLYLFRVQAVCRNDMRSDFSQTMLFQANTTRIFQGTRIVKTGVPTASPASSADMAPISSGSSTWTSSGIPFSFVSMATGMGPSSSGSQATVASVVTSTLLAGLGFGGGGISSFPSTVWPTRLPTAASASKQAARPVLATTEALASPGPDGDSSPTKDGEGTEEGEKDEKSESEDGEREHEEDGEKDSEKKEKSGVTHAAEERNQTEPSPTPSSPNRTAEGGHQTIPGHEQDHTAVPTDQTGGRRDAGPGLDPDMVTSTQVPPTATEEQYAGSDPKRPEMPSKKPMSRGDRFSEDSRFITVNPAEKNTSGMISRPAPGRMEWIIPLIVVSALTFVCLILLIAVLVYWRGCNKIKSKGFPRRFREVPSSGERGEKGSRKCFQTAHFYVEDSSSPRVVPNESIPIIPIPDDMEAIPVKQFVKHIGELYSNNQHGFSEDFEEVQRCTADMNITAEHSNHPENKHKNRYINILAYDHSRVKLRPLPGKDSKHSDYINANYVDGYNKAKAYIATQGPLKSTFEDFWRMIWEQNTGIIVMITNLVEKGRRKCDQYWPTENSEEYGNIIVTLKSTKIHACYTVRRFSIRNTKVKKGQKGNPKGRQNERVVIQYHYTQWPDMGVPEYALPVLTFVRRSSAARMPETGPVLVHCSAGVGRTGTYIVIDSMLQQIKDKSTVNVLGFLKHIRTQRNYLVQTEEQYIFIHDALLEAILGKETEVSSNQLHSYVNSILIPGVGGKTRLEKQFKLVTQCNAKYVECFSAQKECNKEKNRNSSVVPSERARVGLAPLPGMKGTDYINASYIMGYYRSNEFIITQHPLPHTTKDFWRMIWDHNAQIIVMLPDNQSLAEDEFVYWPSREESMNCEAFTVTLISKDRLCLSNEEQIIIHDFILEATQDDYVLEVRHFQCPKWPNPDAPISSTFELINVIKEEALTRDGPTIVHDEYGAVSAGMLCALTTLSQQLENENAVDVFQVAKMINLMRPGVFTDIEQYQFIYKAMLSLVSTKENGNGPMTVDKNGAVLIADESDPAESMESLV
Method: as §1

binding result [1]: no binding
binding result [2]: no binding
binding result [3]: no binding
B1: TH9-0022 (antibody, human IgG1, kappa, L234A L235A, V domains shown)
VH: QSLEESGGRLVTPGTPLTLTCTVSGFSLSSYAMNWVRQAPGKGLEWIGIINSYGSTYYASWAKGRFTISKTSTTVDLKITSPTTEDTATYFCARVTYDSYGYGYAPYGMDLWGPGTLVTVSS
VL: LVMTQTPSSTSNAVGGTVTIKCQASQSIGNVLAWYQQKPGQPPKLLIYAASTLASGVPSRVGGSRSGTEYTLTISGVQREDAATYYCLGSDSDSDIAFGGGTELEILR
notes: also called TH9-022; negative control
